Data reported in the nanobody polyreactivity screen of Harvey et al. (2022).

assay: yeast display, Sf9 membrane polyspecificity reagent, FACS + sequencing; frameworks hold sequencing errors
Summary of the method: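 Polyreactivity labels are assigned by the sorting gate from which each nanobody was recovered. The gates were low and high (top ~1%), set on anti-HA fluorescence for expression and streptavidin fluorescence for reagent binding. Before sorting, galactose-induced (36–48 hours) yeast display cells were stained for 1 hour at 4 °C with 10% biotinylated, detergent-solubilized Sf9 membrane reagent.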

Q: With “QVQLVESGGGLFQAGGSLSLSCAASGRNLSGYDMGWYRQAQGKERELVAAITRGGTTYYADSVKGRFTISRDNSKNTVYLQMNSLKADDTAVVYTVSYAQYDYWGQGTQVTVSS” as the sequence, how does the “polyreactivity (PSR sort gate)” value read?
A: low polyreactivity

Q: Which “polyreactivity (PSR sort gate)” value does the source give for “QVQLVESGGGLGKAGGSLRLSCAASGFIFYWNAMGWYRQAPGKEREFVATITWSGGSTYYADSVKGRFTISRDYAKNTVYLQMNSLKPEDTAFYYCAAEAPVQPFYVFNSGIYELDYWGQGTQVTVSS” here?
A: low polyreactivity

Q: Which “polyreactivity (PSR sort gate)” value does the source give for “QVQLVESGGGLGKAVGSLRLSCAASGSTFEYYALGWYRLAPGTETELVAAISTAGSTYYADSVKGRFTISRDNAKYTVYLQMNSLKPEDTGVYYCAVDPSPRSYYNYYWGQGTQVTVSS” here?
A: high polyreactivity

Q: For “QVQLVESGGGLGQAGGRLRLSCAASGRTFAQNAMGWNRKAPGKERELVAAITSSGGSTYYADSVKGRFTISRDNAKNTVYLQMNSLKPEDTAVYYCAADRHYGTEYAYDYWGQGTQVTVSS”, which “polyreactivity (PSR sort gate)” value is on record?
A: low polyreactivity

Q: With “QVQLVESGGGLGQAGGRLRLSCAASGRTFGYNAMGWYRQAPGKERELVAAISSGGSTNYADSVKGRFTISRDNAKNTVYLQMNSLKPEDTAVYYCAARRWRYVGTRYDYWGQGTQVTVSS” as the sequence, how does the “polyreactivity (PSR sort gate)” value read?
A: high polyreactivity

Q: With “QVQLVESGGGLGQAGGSLLLSCAASGTFYTYAMGWYRQAPAKERELVAAINGGGRTYYADSVKGRITISRDNAKNSVYFQMNSLKPEDTAVYYCAAVRRISRYDYWGQGTQVTVSS” as the sequence, how does the “polyreactivity (PSR sort gate)” value read?
A: high polyreactivity

Q: With “QVQLVESGGGLGQAGGSLRISCAASGRTFGIYAMGCYRQAPGKLRELVATISWRGGSTYYADSVKGRFTISRDNAKNTVYLQMNSLTPEDTAVYYCAAGPGYLILISDIYGYWGQGTQVTVSS” as the sequence, how does the “polyreactivity (PSR sort gate)” value read?
A: low polyreactivity

Q: For “QVQLVESGGGLGQAGGSLRLICAASGIIFLYYAMGWYRQAPGKERELVAAITRSGGNTYYADSVKGRFTISRDNAKNTVYLQMNSLIPEDTAVYYCAARHNSVRGRGYGYDYWGQGTQVTVSS”, which “polyreactivity (PSR sort gate)” value is on record?
A: low polyreactivity

Q: Which “polyreactivity (PSR sort gate)” value does the source give for “QVQLVESGGGLGQAGGSLRLSCAASGFIFGLNAMGWYRQAPGKERELVAAISSIGGSTYYADSVKGRFTISRDNAMNTVYLQMNSLIPEDTAVYYCAKRYGGRRSWYDYWGQGSQVTVSS” here?
A: high polyreactivity

Q: With “QVQLVESGGGLGQAGGSLRLSCAASGFIFTPYTMGWYRQAPGKERELVAAITDGSSTYYADSVKGRFTISRDNAKNTVYLQMNSLKQEDTAVYYCNDDGKPPYISWLYDYWGLGTQVTVSS” as the sequence, how does the “polyreactivity (PSR sort gate)” value read?
A: low polyreactivity

Q: For “QVQLVESGGGLGQAGGSLRLSCAASGLIFFFYAMGWYRQAPGKERELVASISGGGITYYADSVKGRFTISRDNAKNTVYLQMYSLKPEDTAVIKNDFWGQGTQVTVSS”, which “polyreactivity (PSR sort gate)” value is on record?
A: low polyreactivity

Q: For “QVQLVESGGGLGQAGGSLRLSCAASGRIFSQNAMGWYRQAPGNERELVAAITGNGGDTYYADSVKGRFTISRDNAKNTVYLQMNSLKPEDTAVYYCAARVPPVYGRVGGYHYWGPGTQVTVSS”, which “polyreactivity (PSR sort gate)” value is on record?
A: low polyreactivity

Q: With “QVQLVESGGGLGQAGGSLRLSCAASGRIFTFNAMGWYRQAPGKARELVAAISSRGDGTYYADSVKGRFTISRDNAKNTVYLQMNSLKPEDTAVYDCAADVYPYQSLSYPLQYELDYWGQGTQVTVSS” as the sequence, how does the “polyreactivity (PSR sort gate)” value read?
A: low polyreactivity

Q: Which “polyreactivity (PSR sort gate)” value does the source give for “QVQLVESGGGLGQAGGSLRLSCAASGRILYIYVMGRYRQARGKERELVAALTWDDGDTYYADSVKGRFTISRDNAKITVYLQMNSLKPEDTAVYNCNAGGQGVATITGHTPEFDYWGQGTQVTVSS” here?
A: low polyreactivity

Q: With “QVQLVESGGGLGQAGGSLRLSCAASGRTFAAYAMGWYRQAPGKERELVAAISAGDGTNYADSVKGRFTISRVNAQNTVYLQMNSLKPEDTAVYYCAAVGPLFWPYYSYRRGYDYWGQGTQVTVSS” as the sequence, how does the “polyreactivity (PSR sort gate)” value read?
A: low polyreactivity

Q: For “QVQLVESGGGLGQAGGSLRLSCAASGRTFDNYAMGWYRQAPGKERELVARITDTGGSTYYADSVKGRFTISRVNAKNTVYLQMNSLKPEDTAVYYCAAVSYPFAWYWLYYYWGQGTQVTVSS”, which “polyreactivity (PSR sort gate)” value is on record?
A: low polyreactivity

Q: With “QVQLVESGGGLGQAGGSLRLSCAASGSIFDINAMGWYRQAPGKERELVAANRENGGDTYYPDSVKGRFTISRDNAKHTVYLQMNSLKPEDTAVYYCAAYSGDQAYQGDYWGQGTQVTVSS” as the sequence, how does the “polyreactivity (PSR sort gate)” value read?
A: low polyreactivity

Q: Which “polyreactivity (PSR sort gate)” value does the source give for “QVQLVESGGGLGQAGGSLRLSCAASGSIFGKNAMGWYRQAPGKETELVAAITWSGGSTYYADSVKGRFTISRDNAKNTVYLQLNSLKPEDTAVYYCNAVRVRVTSHRFRQLDYGYWGQGTQVTVSS” here?
A: low polyreactivity

Q: With “QVQLVESGGGLGQAGGSLRLSCAASGSIFSANAMGWYRQAPGKERELVASITGDGSTNYADSVKGRFTISRDNAKNTVYLQMNSLKPEDTAVYYCAADIGSWYDYWGQGTQVTVSS” as the sequence, how does the “polyreactivity (PSR sort gate)” value read?
A: low polyreactivity

Q: Which “polyreactivity (PSR sort gate)” value does the source give for “QVQLVESGGGLGQAGGSLRLSCAASGSIFYSYAMGWYRQAPGKDRELVADISSDGSTNYADSVKGRFTISRDNAKNTVFLQMNSLKPEDTAVYYCAKKPSSARYVTIGFDYWGQGTQVTVSS” here?
A: low polyreactivity

Q: With “QVQLVESGGGLGQAGGSLRLSCAASGYTFAGYAMGWYRPAPGKETELVAAISQSGGRTNYADSVKGRFTISRDNSKNTVYLQMNSLKPADTAVYYCAAEETSYTSEYWGQGTQVTVSS” as the sequence, how does the “polyreactivity (PSR sort gate)” value read?
A: high polyreactivity

Q: With “QVQLVESGGGLGQAGGSLRLSCSASGRIFDIYGMGWYRQAPGKERELVAAITSGGDTNYADSVKGRFTISRDNAKNTVYLQMNSLKPEDTAVYYCAARIRDQDRYDYDYWGQGTQVTVSS” as the sequence, how does the “polyreactivity (PSR sort gate)” value read?
A: low polyreactivity

Q: For “QVQLVESGGGLIQAGGSLRLSCAASGSTFPYYAMGWYRQAPVKEREFVAAIRFSGSSTYDADSVKGRYTISRDYAKTTVYLQMNSLNREDTAVYYCATDYWLPSFSYDYWGQGTQVTVSS”, which “polyreactivity (PSR sort gate)” value is on record?
A: low polyreactivity

Q: Which “polyreactivity (PSR sort gate)” value does the source give for “QVQLVESGGGLLHAGGSLRLSCAASGRTFYSNAMGWYRQAPGKERELVASISSRGSTNYADSVKGRFTISRDNAKNTVYLEMNSLKPEDTAVYYCAKRTHQFGVSRSYNTYYYWGHGTQVTVSS” here?
A: low polyreactivity

Q: Which “polyreactivity (PSR sort gate)” value does the source give for “QVQLVESGGGLLKAGGSLRLISAASGSIFGYNTMGWYRQAPGKERELVADISVSGDDTYYADSVKGRFTISRDNAKNTVYLQMNSLKPEDTAVSYCNAVEYFGYYNTYDYWGQGTQVTVSS” here?
A: low polyreactivity

Q: Which “polyreactivity (PSR sort gate)” value does the source give for “QVQLVESGGGLLQAGGSISLSCAASGFTISPYAMGWYRQAPAKERELVAVISKSSTRTYYADSVKGRFTITRDNAKNTVYLQMNSLKPEDTAVYYCYAGCNFVSGYYYWGQGTQVTVSS” here?
A: high polyreactivity

Q: For “QVQLVESGGGLLQAGGSLPLSCAASGRIFIKYAMGWYRPAPGKERELVAAISQSGGSTYYADSVKGRFTISRDNAKNTVYLQMNSLKPEDTAVYYCAAGNRRLGGRLYRYYYWGQGPQVTVSS”, which “polyreactivity (PSR sort gate)” value is on record?
A: high polyreactivity

Q: With “QVQLVESGGGLLQAGGSLRISCAASGSILFLYDMGWYRQAPGKERELVAAIRWSGGGTYYADSVKGRFTISRDNAKNTVYLQMNSLKPEDTAVYYCAAAARYPFDVTYYYWGQGTQVTVSS” as the sequence, how does the “polyreactivity (PSR sort gate)” value read?
A: high polyreactivity

Q: With “QVQLVESGGGLLQAGGSLRLRSPASGSIFEEYAMGWYRQAPGKERELVAAITRRGGNTYYADSVKGRFTISRDNAKNTVYLQMTSLKPEDTAVYYCAAPLGNYSWQYEYWGPGTQVTVSS” as the sequence, how does the “polyreactivity (PSR sort gate)” value read?
A: low polyreactivity

Q: Which “polyreactivity (PSR sort gate)” value does the source give for “QVQLVESGGGLLQAGGSLRLSCAASGFIFDGYAMGWYRQAPGKERELVAAISSVGSTYYADSVKGRFTISRDNAKKTVYLQMNSLKPEDTAVYYCAAVRFYTYNYWGQGTQVTVSS” here?
A: low polyreactivity

Q: Which “polyreactivity (PSR sort gate)” value does the source give for “QVQLVESGGGLLQAGGSLRLSCAASGFIFHHYGMGWYRQAPGKERELVAGDTHYADSVKGRFTISRDNAKNTVYLQMNSLKPEDTGVYYCNAYWKDDFEDGPGRRGMDYWGQGTQVTVSS” here?
A: low polyreactivity

Q: With “QVQLVESGGGLLQAGGSLRLSCAASGFIFRRYTLGWYRQAPGKERELVAAITSSGARTYYADSVKGRFTISRDNAKNTVYLQMTSLKPEDTAVYYCYTSYRKKKRYYYWGQGTQVTVSS” as the sequence, how does the “polyreactivity (PSR sort gate)” value read?
A: high polyreactivity
